Measured values taken from the supplement of paper PMC12636428.

What follows are sequences tested on Saccharomyces cerevisiae (assay: transcriptional activation domain activity (GFP:mCherry ratio, weighted mean of sorted bins, harmonized to initial dataset scale) (arbitrary fluorescence ratio units); higher = stronger transcriptional activation). Conditions: beta-estradiol 1 µM; induction time 4 h.
How it was run: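 The activation activity of each tile is the read-weighted mean of bin median fluorescence, averaged across its barcodes and mapped linearly onto the scale of the initial dataset. Tiles were fused to an estradiol-inducible synthetic transcription factor, barcoded, and integrated at URA3 in yeast diploids carrying a GFP reporter. Induction used 1 uM beta-estradiol in SC for 4 hours at 30 °C, after which cells were sorted into 8 GFP:mCherry bins, and any tile with fewer than 50 reads was dropped.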

Sequence	transcriptional activation domain activity
QSLENQTTETIDVSPDKHRLLIGRGGETRRAIESKFKVQLDIPKQTATGAARN	64100
FRVASYRIWCLLGCGSVWSLIYVPLAWNDGFSLFYLLHPWKIVRVFILNVLAG	54700
PSRTSCATPSPTSSTSAVPSARSSTGPRSRSRSRTASTSSTRASAAPSCSCAR	10500
ILALNLSCFDTLCYCYGFWSRLFFYLLLLLMHHLHYHAIQNQSLDLFALHIYR	78000
MTEQPPAIRIADKDGDGPAKRRRRPALSCAECRNRKVRCDRREPCGSCTRLRS	42400
DRLSLRFTLAISLTDVIRAIAILIYSHFQVDDWRCSLLSFSLYWLTLLYLFLT	25300
MVLLDVGWLCISRFILLDSMLLFFTFLTVFCLTKFHNQQYQSFSVDWWVWLFL	67700
KEREQREQREQRRKEEREREKERERERELRERERERERERQQAREEAERAAMG	15400
AAADAEVDELEDGTADADGAKPKKRKRGGDADGKPKSARKDAPAAAKKKGGAA	36500
RVFTVPGKCFFDALAADSTDASCTEESLKKIWNELHTTSSEIEPWSNGYIDIS	98000
KGGEYHRRKGDETSSQGQMGKKVKSEKGEEEKERRKKKERVKQHVVNVRVAEQ	41900
EAVESKPVKKAKGKPKKAIETPEPDAEESTGAEAVESKPVKRAKGKSKKAIKT	53100
LDLEHLFGIDIEQRFQSYVMTQQAWLMPYLARIYYSHISLGVCFLVYIYTFLP	44100
KSKKRRRDDGSSDTADSDGNRGRSTGKKRQRSRRGSDDNDSEADARKRSRKRR	23600
PFQFLLLKSLSIQKHSDLIIRGCSHFYVGVLSCILNFFLGSWSAWLKRFWYML	80300
GKFLTVLLALSVMGSVAATSVAIFSFNNIRSNVYSFYSISLNMQILMPVLVYV	41200
LLQLWYMHKSLVLADPTLVCPLAFCFYNLSSIINGLVYFDQFAFLSTLHLLLV	25400
EQAAKKKTAAPAAAPKAEAAKAPEVKAEAAAPAPEPEKPAAGGKKKKLNPALL	52300
GTDDAEAREKTGAADPSADPASRKRRADDGEGDARKRIRTEGGSASAAAASSS	14100
LALLTPGPSHVDPEYGTFQSLLFFFGLCTFLTTLTGIASSYIFWLYCSVLLLA	52100
LLHPDKREPIDEDIWTVIPRGIRCEMMTFDLHIWLRRLVECLYKCLLENLVPT	46600

Sequence	transcriptional activation domain activity
CHLTVIYFMSVPVIYLRLARLLFLEILTAGRIAIEGNGLGQGSLLAKTLRGRQ	66500
EEDSKVSVDVDRPAKRGRGRPPKPKDPNAPPPKPKSGRGRGRPPKAKPVEVAG	39800
PAHVIFDVVIVCAGYFAREAFEEVVRMTTMCAVGPVFVVQALVRAGKVCTGIG	76300
EKLVMNILEAVRLFHSIFDGLIAKALDEFAHLSRQARTMLSFFVIHIHLGVLH	71300
EAYPEPEEEPTMEPIDLSDDALLQVSYRLQKQNLSSSIVLLLTNRCLFISKPY	49400
MTNLFSASFLSSSSSLSFFFSLFFLLFQRYLLEERPLTIMAFYLLPFFFSLSL	29800
MVVFGCRCNVMLYILFCNLRFLLRGAVCIQILTMFILWCAMTEIVLSVLPILS	47300
KARQEKQPPMTQKDLATKVNEKPSVINDYESGRAVPNQQVLSKLERALQVKLR	22500
NSTIHNLLELVLLPELCGFCCFSMRFVVMIDLIGTLTLPSSVVYLVYLIYVVI	56700
SSSNSGGGGGVPEHILARVGYAVVSGLHFLKTKLNVIHRDVKPSNVLCSRAGD	42900
RQCMLYLIAYFMLQETFGTYFNVTGILQNEYYRPSFGLLPLLMRARIIHYSPL	34600
AKLESCNPRAYLDPSTAPIATMARGNQRDKAREANLKKQAAQKKGNSMSGTEM	44300
MVYMSSVNVWGLDIYYSRVSIYLFFFPSLFFLWAASMSLFPYYFLPSLFYIVL	26500
PSASTRSAKSGSKGKGSKTTTVGSGSDTEKESAKMASSRSSKHSSSSRKDKSS	29200
EVEAAIAAAAAEVEKVEVKAKAKAEAAAAAAAAAEAAAAAEARAAAAAAAQAA	30700
KGGEKKEGEEQNGGGEKKGGEEQKGGGEKKGRWVEEKGGEEQKGGAIAAAGQN	14200
ERPFFALVVCGEYAHLSPETRVKVAQLLLRCLPAPNLSLLVYLLSFLSHFQHA	62200
LAQAFFASMPVVCFLTFGLFVLFALVAGFLFFTLFWVGLAFCVLVPVLVVTFC	49000
LYIVRLRFVHHFRINTAFVEACQLSIPPFVSVSLVSLAIAVFLNCVGHHFAAF	39400
DGGGRDSEKRGKGKLITRKSHRKSRLGCGNCKQRRIKCDEKRPHCTNCQKRDI	37600
MIRFPCLLLYIFAMVYLGVLFFSFFDSCFFFFLHLLGAGWVVHFFLDIFFFYI	70600

Sequence	transcriptional activation domain activity
PFGFLTDEVKNSYLRCSYKWSFHHIPNLLIAIRERRLDPLLIWAMLAITVRFS	79500
EDGESTKTKDAGRKRKRSTGEGEREDKGADGTKENKKKRKLASEKEKESDKEN	27400
TVWLILNDQTLGYALGSFLCENSLLLSQRINEFFDTVLVAWMQWVLRWLDSWP	40400
QTIPKNQFASRVWTYMDPEVSRHLIDHYLGSIDLSRLELAVLALKCLYSRHTT	53900
GRRGSKAVPGEVSEAEANGDAPQTEATPAPESDDAAKPKKKKKSKAARKAKKA	36100
FDRLIPEWAHAWKPVEGIWMLWWIKHQIFFALGVLQLLNQYWFFLILRILVRT	56300
MCLLCHATLFSSCPYFSIFLVFSFFSFFSLFFFTSFLSLLLFMSLLPTYYHLY	43500
ESFKPAPAPKKEEAPKEEAKPAEEGAKAEEAPKEGENKEEAKPAEEPKRRSAS	28400
MAPPFLGHFFGLYPSIMIRFPCLLLYRFATVYLGVLLFPFSILFFILFIFYFF	34200
RRVTSMRLDTEGYVGVLGVEVDFRGRMFDLTADILVRVRYCLQSTILLLEIPL	55100
WRLYMAFRTLKGKLLPCLIEANGLDLFISTFAAIVERVAEVSNLRLTSKLYQA	44900
NRKTIGKQDPYCAARLGKEAKKTETDRRGGQTPRWDQELRFTVHDSADYYQLK	44000
RKLRDVHVPEVPLPLGPDGKADRKKSSLIMVHYVLMHSREVILLCLHRSFFAQ	65300
EKEVEGNKNNEEDKPEENEEKDGEDKDAKEKGEEDEDEEDRDQDQEDEDQEGR	11800
MCVFHFLPWLLFPSPLISLFFVFFILFSFFVFFFLVPSSCPSFISFFPVSCLF	38000
PNIHSLHSLYTFRFLHIHSFHNLFFLPFFYFLYSLCFLHLPCFLSFLRFLHLL	63900
KKLQNDILRPVDWIMYYYFASHIPITVLFDLQAIYPTNWVPQLLLDINAQYIN	37500
SLSSSRVLGEHGNGPDGEGGFVHVSYRISLDEENELQMRVRPSERGGGEGVDG	39200
CLVIRGRSRFQHGPFWLGSFGLLCNIVLLSWTLFSLVFFSFPFVKPIIPGKPF	76900
MFTRLLRYLHCSHFCFAIATRFRGWIGLFSPLYVSCFSQPFRFRYLGCLLFLF	52800
KRHLPWPWNGERLIFILQDVWVPNFNEHHLLWTLDLKRKGLTFIALTNVWGIY	50300

Sequence	transcriptional activation domain activity
FFSFPSFLLLPPPLSSLPFPSPFLSLLLSLLAFPAAFFPLFSLSSLLNIFPTT	58500
MVQNWEFFVFFFLPFNSFFSFFLPFCEVYMCAVCGLWCGSPGKLLGLFYFWFV	36600
ADRTSRRRDDRSRSRDRGSSRRDSDRHRHHSRRSSRAERTKKEESQGNGTVPD	17800
AIYSNIMGFLGGVAWAMLVAHICQLFPNACAAAIVTRFFRIMYQWKWPQPVLL	64900
HYRIRLIYFMHFVAFGFGLSSILVNLFLCRPLRKNWMTDVNGRCFNRDAFYYA	58600
ILRLWQIFWVAAKTDHMSYPRFEAPGCGDFCRDWKVLVAIILIRTKLTMGTRC	52200
GIMILCCTLVVLTRLMGHRILPYTYFTSCLLMQIDFILGMIWDMDPFKVRRFC	44600
GESSSKPPKKRGRPRKNPLPPAEPSGADEGETSAPAAEPNPPKRKRGRPRKDS	34600
VLLHLNRYMSIFGNLQILILVGLTSCCRTSHIYHMVLLLVQQHTLHRRYVLHA	69400
FYICAILGFKIGIIFAFLRIAVDRTYRISIICVAVICSAFYFCFFVAQLNFCT	62100
LYYTAPFNLQPYISYVGCGLVCLVLFFNGFWIFFPGQFSVANLFTSYFAPVFF	65000
VLLLLYLAFRAQTIEISIPKAKFCCYDTRVRILVPSRGYRSTYMCRISLLLGC	19900
MLARFKWSMWRMSLVRALRASLNITLFFYFLFPPRYSYVFLFLFLSFFLFFFS	32500
TRDDEEGGEEEEEEEEEEEEDEEDEDPESLPHIHKALEIHYQIHLSPTYSVPV	52700
MLMHASPRMPIVQIFFFIFIHLSPPPFPFFFSLILSHRYSISFFLSLFSLLYF	35800
EGSGEEAGGEGSGGEEDEEDEAGGGGDDADGRRGEDDGADEGTAGARAAAKAA	34900
LFLFLFLIFFSFLKCTFTYIFVPRFRFSLFSHSGPAVSLVYILGLLGYWGVNV	55100
MSSSEPLTEQTAALSVAEGDADGNVPIGPDGKPLSKSAIKKLQKEKEKAEKAA	39500
GEGESADERRRRRHKRKRDGSDEEDEEERGRKRSRRSKGSDDDRSGDDDEDDE	25600
RVVVVTDAFQKMDHFYWSLQAWLMYRFDALSACSTFAMTLLALYDDLSPGLTA	83700
